From US20250064910A1 (CHILDREN S MEDICAL CENTER, published 2025)

Target: T1, IpgC (UniProt P0A2U4 1-155, limits assumed)
T1 construct: Co-expressed with Rhavi-IpaB in E. coli from pETDuet; also called chaperone IpgC
Assay: co-expression in E. coli; chaperone retained with the His-tagged fusion on Ni-NTA until the detergent wash
Protocol: DNA fragments encoding of His-SseB and SseA or His-IpaB and IpgC were synthesized and cloned into a pETDuet vector containing Rhavi by restriction enzyme digestion and ligation. Sequence-confirmed plasmids were transformed E. coli T7 shuffle express cells and transformants containing the relevant cloned proteins were grown to OD600=1 at 25° C., and protein expression was induced with 0.2 mM IPTG at 16° C. overnight. Cells were spun down and pellets were resuspended in lysis buffer (20 mM Tris-HCl, 500 mM NaCl, pH8.0) and then lysed by sonication. Supernatant was loaded over a Ni-NTA column and SseA or IpgC was washed off column with 0.05% LDAO in lysis buffer; proteins Rhavi-SseB and Rhavi-IpaB were eluted in imidazole buffer. Protein-containing elutions were combined, purified over a gel-filtration column for dimer fractions.

T1 sequence (P0A2U4 whole entry): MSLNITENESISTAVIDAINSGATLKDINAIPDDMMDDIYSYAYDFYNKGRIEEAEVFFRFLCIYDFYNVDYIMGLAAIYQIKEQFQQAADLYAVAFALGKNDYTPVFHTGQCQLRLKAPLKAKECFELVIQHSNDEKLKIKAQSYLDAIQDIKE

B1: Rhavi-IpaB (rhizavidin fused to Shigella IpaB) (other)
chain: FDASNFKDFSSIASASSSWQNQSGSTMIIQVDSFGNVSGQYVNRAQGTGCQNSPYPLTGRVNGTFIAFSVGWNNSTENCNSATGWTGYAQVNGNNTEIVTSWNLAYEGGSGPAIEQGQDTFQYVPTTENKSLLKDGGGSSHNVSTTTTGFPLAKILASTELGDNTIQAANDAANKLFSLTIADLTANQNINTTNAHSTSNILIPELKAPKSLNASSQLTLLIGNLIQILGEKSLTALTNKITAWKSQQQARQQKNLEFSDKINTLLSETEGLTRDYEKQINKLKNADSKIKDLENKINQIQTRLSELDPESPEKKKLSREEIQLTIKKDAAVKDRTLIEQKTLSIHSKLTDKSMQLEKEIDSFSAFSNTASAEQLSTQQKSLTGLASVTQLMATFIQLVGKNNEESLKNDLALFQSLQESRKTEMERKSDEYAAEVRKAEELNRVMGCVGKILGALLTIVSVVAAAFSGGASLALAAVGLALMVTDAIVQAATGNSFMEQALNPIMKAVIEPLIKLLSDAFTKMLEGLGVDSKKAKMIGSILGAIAGALVLVAAVVLVATVGKQAAAKLAENIGKIIGKTLTDLIPKFLKNFSSQLDDLITNAVARLNKFLGAAGDEVISKQIISTHLNQAVLLGESVNSATQAGGSVASAVFQNSASTNLADLTLSKYQVEQLSKYISEAIEKFGQLQEVIADLLASMSNSQANRTDVAKAILQQTTA
notes: also called IpaB fused to rhizavidin; Rhavi-IpaB carrier protein
B1: binds.
